Measured values taken from patent publication US20210355194A1 (TWIST BIOSCIENCE, published 2021).

Key:
[1] = molecular target: Acro COVID S1 (S1N-C82E8) (SARS-CoV-2, UniProt P0DTC2 16-685); test: phage ELISA
[2] = molecular target: CV S-protein construct 6 trimer TP31001F (SARS-CoV-2, UniProt P0DTC2 14-1208); test: SPR

Row | Binder | specificity ELISA, fold over background [1] [fold over background] | Kd [2] [nM]
1 | variant 2-2 (antibody, V domains shown) VH: EVQLLESGGGLVQPGGSLRLSCAASGFTFSRHAMNWVRQAPGKGLEWVSGISGSGDETYYADSVKGRFTISRDNSKNTLYLQMNSLRAEDTAVYYCARDLPASYYDSSGYYWHNGMDVWGQGTLVTVSS VL: DIQMTQSPSSLSASVGDRVTITCRASQTINTYLNWYQQKPGKAPKLLIYSASTLQSGVPSRFSGSGSGTDFTLTISSLQPEDFATYYCQQSYSTFTFGQGTKVEIK | 39.4 | –
2 | variant 2-4 (antibody, V domains shown) VH: EVQLLESGGGLVQPGGSLRLSCAASGFTFSDFAMAWVRQAPGKGLEWVSAISGSGDITYYADSVKGRFTISRDNSKNTLYLQMNSLRAEDTAVYYCAREADGLHSPWHFDLWGQGTLVTVSS VL: DIQMTQSPSSLSASVGDRVTITCRASQSIDTYLNWYQQKPGKAPKLLIYAASALASGVPSRFSGSGSGTDFTLTISSLQPEDFATYYCQQSYSAPPYTFGQGTKVEIK | 37.7 | –
3 | variant 2-12 (antibody, V domains shown) VH: EVQLLESGGGLVQPGGSLRLSCAASGFTFSDYPMNWVRQAPGKGLEWVSTISGSGGITFYADSVKGRFTISRDNSKNTLYLQMNSLRAEDTAVYYCVRHDEYSFDYWGQGTLVTVSS VL: DIQMTQSPSSLSASVGDRVTITCRASQSIDNYLNWYQQKPGKAPKLLIYGVSALQSGVPSRFSGSGSGTDFTLTISSLQPEDFATYYCQQSHSAPPYFFGQGTKVEIK | 39.8 | –
4 | variant 2-13 (antibody, V domains shown) VH: EVQLLESGGGLVQPGGSLRLSCAASGFTFSDYPMNWVRQAPGKGLEWVSAISGSGDNTYYADSVKGRFTISRDNSKNTLYLQMNSLRAEDTAVYYCVRHDEYSFDYWGQGTLVTVSS VL: DIQMTQSPSSLSASVGDRVTITCRASQSIDTYLNWYQQKPGKAPKLLIYGASALESGVPSRFSGSGSGTDFTLTISSLQPEDFATYYCQQSHSAPPYFFGQGTKVEIK | 27.3 | –
5 | variant 2-5 (antibody, V domains shown) VH: EVQLLESGGGLVQPGGSLRLSCAASGFTFSDFAMAWVRQAPGKGLEWVSAISGSGDITYYADSVKGRFTISRDNSKNTLYLQMNSLRAEDTAVYYCAREADGLHSPWHFDLWGQGTLVTVSS VL: DIQMTQSPSSLSASVGDRVTITCRASQSIHTYLNWYQQKPGKAPKLLIYAASALASGVPSRFSGSGSGTDFTLTISSLQPEDFATYYCQQSYSAPPYTFGQGTKVEIK | 38.3 | –
6 | variant 6-76 (Fc fusion) VHH: EVQLVESGGGLVQPGGSLRLSCAASGLAFDFDGMGWFRQAPGKEREGVAAINSGGSTYYADSVKGRFTISADNSKNTAYLQMNSLKPEDTAVYYCARFFRAHDYWGQGTLVTVSS | – | 1.77
7 | variant 2-1 (antibody, V domains shown) VH: EVQLLESGGGLVQPGGSLRLSCAASGFTFSNYATDWVRQAPGKGLEWVSIISGSGGATYYADSVKGRFTISRDNSKNTLYLQMNSLRAEDTAVYYCAKGGYCSSDTCWWEYWLDPWGQGTLVTVSS VL: DIQMTQSPSSLSASVGDRVTITCRASQSIHRFLNWYQQKPGKAPKLLIYAASNLHSGVPSRFSGSGSGTDFTLTISSLQPEDFATYYCQQSYGLPPTFGQGTKVEIK | 39.3 | –
8 | variant 6-73 (Fc fusion) VHH: EVQLVESGGGLVQPGGSLRLSCAASGHTFSGYAMGWFRQAPGKEREFVAVITREGSTYYADSVKGRFTISADNSKNTAYLQMNSLKPEDTAVYYCARLGGEGFDYWGQGTLVTVSS | – | 0.52
9 | variant 3-10 (antibody, V domains shown) VH: EVQLLESGGGLVQPGGSLRLSCAASGFTFRSHAMSWVRQAPGKGLEWVSSISGGGASTYYADSVKGRFTISRDNSKNTLYLQMNSLRAEDTAVYYCARVKYLTTSSGWPRPYFDNWGQGTLVTVSS VL: DIQMTQSPSSLSASVGDRVTITCRASQSIRKYLNWYQQKPGKAPKLLIYASSTLQRGVPSRFSGSGSGTDFTLTISSLQPEDFATYYCQQSLSTPFTFGGGTKVEIK | 1.2 | –
